Assay results taken from the supplement of paper PMC7877785.
± gives the uncertainty stated by the source.

Experiment: self-splicing fitness, log relative to wild type (ln ratio); higher = more splicing; Tetrahymena group I intron in knt gene, E. coli kanamycin selection, DiMSum; sequences stand for … in CUCUCU…GGAGGGAAAAGUUAUCAGGCAUGCACCUGGUAGCUAGUCUUUAAACCAAUAGAUUGCAUCGGUUUAAAAGGCAAGACCGUCAAAUUGCGGGAAAGGGGUCAACAGCCGUUCAGUACCAAGUCUCAGGGGAAACUUUGAGAUGGCCUUGCAAAGGGUAUGGUAAUAAGCUGACGGACAUGGUCCUAACCACGCAGCCAAGUCCUAAGUCAACAGAUCUUCUGUUGAUAUGGAUGCAGUUCACAGACUAAAUGUCGGUCGGGGAAGAUGUAUUCUUCUCAUAAGAUAUAGUCGGACCUCUCCUUAAUGGGAGCUAGCGGAUGAAGUGAUGCAACACUGGAGCCGCUGGGAACUAAUUUGUAUGCGAAAGUAUAUUGAUUAGUUUUGGAGUACUCGUGGUCG
Method in brief: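 DiMSum derived fitness as the error-weighted combination of fold changes across replicates, kanamycin versus no kanamycin, normalised to wild type. E. coli BL21(DE3) held the library, which randomised all eight P1ex-region intron nucleotides within the knt kanamycin-resistance gene on pET-22b(+). Six replicate transformations grew overnight at 37°C or 30°C on LB agar with or without 25 μg/mL kanamycin, also containing 100 μg/mL carbenicillin, 50 μM IPTG and 0.2% rhamnose, and pooled colonies were amplicon-sequenced on an Illumina HiSeq 2500.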

Row | Sequence | self-splicing fitness (ln) (30 °C) | self-splicing fitness (ln) (37 °C)
1 | UACCAGCAAUAUUACGGAAG | -3.5 ± 0.24 | -1.57 ± 0.16
2 | UACCAGCAAUAUUACGGCCC | -1.19 ± 0.14 | -0.219 ± 0.26
3 | UACCAGCAAUAUUACGGGGG | -2.5 ± 0.14 | -1.77 ± 0.13
4 | UACCAGCAAUAUUACGGUCC | -1.55 ± 0.11 | -0.0163 ± 0.11
5 | UACCAGCAAUAUUACGUAGC | -2.38 ± 0.11 | -1.72 ± 0.14
6 | UACCAGCAAUAUUACGUAUC | -2.55 ± 0.15 | -0.118 ± 0.12
7 | UACCAGCAAUAUUACGUCCU | -1.79 ± 0.1 | -1.34 ± 0.14
8 | UACCAGCAAUAUUACGUCGA | -0.651 ± 0.073 | -0.0658 ± 0.085
9 | UACCAGCAAUAUUACGUCGG | -2.64 ± 0.12 | -1.91 ± 0.14
10 | UACCAGCAAUAUUACGUGGC | -4.31 ± 0.22 | -3.66 ± 0.2
11 | UACCAGCAAUAUUACGUGUC | -2.04 ± 0.1 | -2.23 ± 0.15
12 | UACCAGCAAUAUUACGUGUU | -3.72 ± 0.11 | -1.38 ± 0.078
13 | UACCAGCAAUAUUACGUUCC | -2.79 ± 0.19 | -1.77 ± 0.22
14 | UACCAGCAAUAUUACGUUUA | -0.529 ± 0.052 | -0.264 ± 0.064
15 | UACGAGCAAUAUUACGACCU | -2.35 ± 0.27 | -1.82 ± 0.5
16 | UACGAGCAAUAUUACGAGUG | -1.86 ± 0.07 | -1.74 ± 0.1
17 | UACGAGCAAUAUUACGCACU | -2.42 ± 0.29 | -2.13 ± 0.28
18 | UACGAGCAAUAUUACGCGUG | -4.43 ± 0.3 | -2.7 ± 0.21
19 | UACGAGCAAUAUUACGCUAG | – | -1.7 ± 0.46
20 | UACGAGCAAUAUUACGGAAU | -2.71 ± 0.27 | -2.76 ± 0.34
21 | UACGAGCAAUAUUACGGCCU | -3.35 ± 0.18 | -3.77 ± 0.46
22 | UACGAGCAAUAUUACGGCGC | -2.53 ± 0.29 | -2.4 ± 0.46
23 | UACGAGCAAUAUUACGGGGA | -2.87 ± 0.29 | -1.69 ± 0.19
24 | UACGAGCAAUAUUACGGGGC | – | -3.34 ± 0.3
25 | UACGAGCAAUAUUACGGUAC | -3.89 ± 0.3 | -2.76 ± 0.34

Row | Sequence | self-splicing fitness (ln) (30 °C) | self-splicing fitness (ln) (37 °C)
26 | UACGAGCAAUAUUACGGUCU | -4.06 ± 0.34 | -3.1 ± 0.4
27 | UACGAGCAAUAUUACGGUUC | -4.18 ± 0.19 | -2.5 ± 0.15
28 | UACGAGCAAUAUUACGUACG | -3.76 ± 0.23 | -2.34 ± 0.18
29 | UACGAGCAAUAUUACGUAGG | -3.41 ± 0.31 | -2.57 ± 0.28
30 | UACGAGCAAUAUUACGUAUA | -2.7 ± 0.2 | -0.839 ± 0.14
31 | UACGAGCAAUAUUACGUCGU | -4.08 ± 0.33 | –
32 | UACGAGCAAUAUUACGUGAC | -4.06 ± 0.33 | -1.76 ± 0.27
33 | UACGAGCAAUAUUACGUGUU | -3.63 ± 0.19 | -3.63 ± 0.29
34 | UACGAGCAAUAUUACGUUUA | -2.32 ± 0.12 | -1.79 ± 0.12
35 | UACUAGCAAUAUUACGAACA | -0.0493 ± 0.19 | -0.55 ± 0.15
36 | UACUAGCAAUAUUACGACAC | -2.53 ± 0.2 | -0.604 ± 0.15
37 | UACUAGCAAUAUUACGAGAC | – | -1.56 ± 0.25
38 | UACUAGCAAUAUUACGAGGG | -2.3 ± 0.13 | -2.52 ± 0.17
39 | UACUAGCAAUAUUACGAUAU | -3.18 ± 0.17 | -2.36 ± 0.17
40 | UACUAGCAAUAUUACGAUGA | -0.469 ± 0.13 | -0.321 ± 0.11
41 | UACUAGCAAUAUUACGAUGG | -0.657 ± 0.12 | -0.406 ± 0.2
42 | UACUAGCAAUAUUACGCAAU | -3.82 ± 0.23 | -1.63 ± 0.16
43 | UACUAGCAAUAUUACGCAGU | -3.26 ± 0.35 | -3.09 ± 0.34
44 | UACUAGCAAUAUUACGCCCA | -0.901 ± 0.21 | 0.802 ± 0.33
45 | UACUAGCAAUAUUACGCCCC | -2.19 ± 0.41 | -1.18 ± 0.43
46 | UACUAGCAAUAUUACGGAGU | -3.43 ± 0.24 | -3.25 ± 0.29
47 | UACUAGCAAUAUUACGGCAU | -1.36 ± 0.095 | -1.28 ± 0.099
48 | UACUAGCAAUAUUACGGCGG | -0.694 ± 0.11 | 0.0905 ± 0.13
49 | UACUAGCAAUAUUACGGCGU | -2.16 ± 0.11 | -0.707 ± 0.12
50 | UACUAGCAAUAUUACGGCUA | -1.58 ± 0.12 | -0.671 ± 0.099

Row | Sequence | self-splicing fitness (ln) (30 °C) | self-splicing fitness (ln) (37 °C)
51 | UACUAGCAAUAUUACGGGAU | -3.17 ± 0.17 | -1.43 ± 0.13
52 | UACUAGCAAUAUUACGGGUC | -2.68 ± 0.21 | -2.29 ± 0.26
53 | UACUAGCAAUAUUACGGGUG | -0.974 ± 0.077 | -0.232 ± 0.075
54 | UACUAGCAAUAUUACGGGUU | -2.34 ± 0.18 | -1.78 ± 0.16
55 | UACUAGCAAUAUUACGGUAC | -3.01 ± 0.18 | -2.53 ± 0.23
56 | UACUAGCAAUAUUACGGUGG | -2.1 ± 0.09 | -1 ± 0.098
57 | UACUAGCAAUAUUACGUGCA | -1.01 ± 0.073 | 0.166 ± 0.09
58 | UACUAGCAAUAUUACGUGCC | -1.33 ± 0.14 | -2.6 ± 0.26
59 | UACUAGCAAUAUUACGUGCU | -3.85 ± 0.32 | -3.06 ± 0.27
60 | UACUAGCAAUAUUACGUUCG | -0.992 ± 0.077 | -0.484 ± 0.094
61 | UACUAGCAAUAUUACGUUCU | -2.47 ± 0.25 | -1.03 ± 0.19
62 | UACUAGCAAUAUUACGUUUC | -4.15 ± 0.33 | -2.53 ± 0.23
63 | UACUAGCAAUAUUACGUUUG | -3.28 ± 0.18 | -2.21 ± 0.29
64 | UAGAAGCAAUAUUACGAAGG | -2.9 ± 0.17 | -1.82 ± 0.39
65 | UAGAAGCAAUAUUACGACGA | -0.144 ± 0.1 | -0.0918 ± 0.1
66 | UAGAAGCAAUAUUACGACUG | -0.418 ± 0.083 | -0.0265 ± 0.1
67 | UAGAAGCAAUAUUACGCCUC | -2.88 ± 0.5 | –
68 | UAGAAGCAAUAUUACGCGGG | -2.4 ± 0.14 | -1.1 ± 0.13
69 | UAGAAGCAAUAUUACGCGUU | -2.89 ± 0.15 | -1.41 ± 0.13
70 | UAGAAGCAAUAUUACGGGAA | -1.96 ± 0.25 | -2.3 ± 0.29
71 | UAGAAGCAAUAUUACGGGAU | -4.15 ± 0.23 | -2.36 ± 0.18
72 | UAGAAGCAAUAUUACGGGCC | – | -1.9 ± 0.31
73 | UAGAAGCAAUAUUACGGGUG | -0.989 ± 0.057 | -0.365 ± 0.078
74 | UAGAAGCAAUAUUACGGUCU | -0.542 ± 0.11 | 0.318 ± 0.11
75 | UAGAAGCAAUAUUACGUAAU | -3.43 ± 0.22 | -1.39 ± 0.18

Row | Sequence | self-splicing fitness (ln) (30 °C) | self-splicing fitness (ln) (37 °C)
76 | UAGAAGCAAUAUUACGUAGA | -2.4 ± 0.095 | -1.79 ± 0.11
77 | UAGAAGCAAUAUUACGUCUC | -1.21 ± 0.11 | -0.794 ± 0.1
78 | UAGAAGCAAUAUUACGUGCU | -2.8 ± 0.21 | -2.42 ± 0.24
79 | UAGAAGCAAUAUUACGUUAC | -3.73 ± 0.32 | -2.79 ± 0.27
80 | UAGAAGCAAUAUUACGUUGC | -4.3 ± 0.27 | -2.82 ± 0.24
81 | UAGCAGCAAUAUUACGAAAA | -2.56 ± 0.25 | -1.27 ± 0.2
82 | UAGCAGCAAUAUUACGAGAU | -3.24 ± 0.2 | -3.18 ± 0.28
83 | UAGCAGCAAUAUUACGAUUC | -3.06 ± 0.14 | -2.94 ± 0.15
84 | UAGCAGCAAUAUUACGCAAA | -1.89 ± 0.18 | -1.76 ± 0.17
85 | UAGCAGCAAUAUUACGCAAG | -3.04 ± 0.23 | -1.76 ± 0.21
86 | UAGCAGCAAUAUUACGCACU | -0.419 ± 0.086 | 0.238 ± 0.1
87 | UAGCAGCAAUAUUACGCAUC | -4.15 ± 0.47 | -3.39 ± 0.26
88 | UAGCAGCAAUAUUACGCCAC | -3.82 ± 0.39 | -1.45 ± 0.3
89 | UAGCAGCAAUAUUACGCCCU | -0.738 ± 0.087 | -0.863 ± 0.11
90 | UAGCAGCAAUAUUACGCCUA | -0.551 ± 0.13 | 0.446 ± 0.15
91 | UAGCAGCAAUAUUACGCGAU | -2.94 ± 0.2 | -3.07 ± 0.35
92 | UAGCAGCAAUAUUACGCGCA | -0.588 ± 0.11 | -0.487 ± 0.095
93 | UAGCAGCAAUAUUACGCGGU | -4.14 ± 0.22 | -2.49 ± 0.17
94 | UAGCAGCAAUAUUACGCGUG | -1.5 ± 0.076 | -0.257 ± 0.1
95 | UAGCAGCAAUAUUACGCGUU | -2.72 ± 0.1 | -1.24 ± 0.11
96 | UAGCAGCAAUAUUACGGAUG | -1.19 ± 0.073 | -0.912 ± 0.079
97 | UAGCAGCAAUAUUACGGCUA | -2.89 ± 0.39 | -1.33 ± 0.28
